Molecular target: clathrin heavy chain (bovine brain) (bovine, UniProt P49951 1-1675, 3H-labelled by reductive methylation)
Experiment: co-IP

Sequence of clathrin heavy chain (bovine brain) (P49951 whole entry): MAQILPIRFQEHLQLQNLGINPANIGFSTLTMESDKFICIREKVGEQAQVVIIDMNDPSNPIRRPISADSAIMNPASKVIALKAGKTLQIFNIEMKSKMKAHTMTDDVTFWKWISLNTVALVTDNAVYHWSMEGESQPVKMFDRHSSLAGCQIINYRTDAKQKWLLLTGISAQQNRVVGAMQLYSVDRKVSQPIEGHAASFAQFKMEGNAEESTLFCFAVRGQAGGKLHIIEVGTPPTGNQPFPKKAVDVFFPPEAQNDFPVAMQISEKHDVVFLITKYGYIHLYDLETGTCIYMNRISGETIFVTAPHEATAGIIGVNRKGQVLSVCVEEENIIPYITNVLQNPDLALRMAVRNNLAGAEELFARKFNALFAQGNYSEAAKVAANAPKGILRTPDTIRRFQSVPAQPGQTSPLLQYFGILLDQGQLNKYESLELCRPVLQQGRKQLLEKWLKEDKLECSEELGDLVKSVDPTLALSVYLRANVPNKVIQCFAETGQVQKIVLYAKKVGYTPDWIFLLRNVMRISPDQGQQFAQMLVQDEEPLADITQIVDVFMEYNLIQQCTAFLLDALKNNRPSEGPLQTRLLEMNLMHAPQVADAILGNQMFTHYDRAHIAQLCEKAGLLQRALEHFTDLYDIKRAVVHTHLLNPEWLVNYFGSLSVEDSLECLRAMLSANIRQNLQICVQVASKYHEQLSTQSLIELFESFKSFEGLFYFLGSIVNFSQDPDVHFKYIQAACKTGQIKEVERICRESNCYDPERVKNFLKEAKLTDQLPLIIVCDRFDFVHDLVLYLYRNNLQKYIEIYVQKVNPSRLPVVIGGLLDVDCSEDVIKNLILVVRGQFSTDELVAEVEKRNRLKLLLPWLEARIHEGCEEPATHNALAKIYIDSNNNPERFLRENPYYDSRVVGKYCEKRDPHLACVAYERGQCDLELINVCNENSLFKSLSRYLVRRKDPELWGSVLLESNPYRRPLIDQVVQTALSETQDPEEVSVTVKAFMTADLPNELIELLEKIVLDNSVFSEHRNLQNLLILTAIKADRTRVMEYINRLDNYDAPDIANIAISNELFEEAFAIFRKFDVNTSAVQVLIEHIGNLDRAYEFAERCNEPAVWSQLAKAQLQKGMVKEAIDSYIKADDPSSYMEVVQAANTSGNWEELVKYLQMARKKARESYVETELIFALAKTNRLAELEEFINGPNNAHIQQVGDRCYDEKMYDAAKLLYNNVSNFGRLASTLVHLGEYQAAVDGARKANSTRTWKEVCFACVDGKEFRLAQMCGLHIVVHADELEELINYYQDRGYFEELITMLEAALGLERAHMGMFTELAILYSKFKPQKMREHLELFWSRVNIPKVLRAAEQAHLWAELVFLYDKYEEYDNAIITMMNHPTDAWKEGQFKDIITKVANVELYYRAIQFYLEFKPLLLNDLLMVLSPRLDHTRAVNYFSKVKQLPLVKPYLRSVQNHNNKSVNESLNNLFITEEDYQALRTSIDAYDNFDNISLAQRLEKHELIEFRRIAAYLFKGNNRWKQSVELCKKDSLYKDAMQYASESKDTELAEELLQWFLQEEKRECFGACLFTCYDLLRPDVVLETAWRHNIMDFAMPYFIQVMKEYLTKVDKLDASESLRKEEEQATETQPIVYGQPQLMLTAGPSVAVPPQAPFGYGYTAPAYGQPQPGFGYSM

B1: clathrin light chain LCa (bovine brain) (natural protein, UniProt P04973 1-243, looked up)
chain: MAELDPFGVPAGGPALGNGVAGEEDPAAAFLAQQESEIAGIENDEAFAILDGGAPGSQPHGEPPGIPDAVDGVTNGDYYQESNGPTDSYAAISQVDRLQSEPESIRKWREEQTERLEALDANSRKQEAEWKEKAIKELDEWYARQDEQLQKTKANNRVADEAFYKQPFADVIGYVTNINHPCYSLEQAAEEAFVNDIEESSPGTEWERVARLCDFNPKSSKQAKDVSRMRSVLISLKQAPLVH
- binding result: binds
